# Test results reported in patent publication US20230322924A1 (Janssen / Centocor, published 2023).
# Positions count from the first letter of the chain named. Numbers in names are those of the source.
# B1: C33B66 (antibody, IgG1, V domains shown)
# VH: QVQLQESGPGLVKPSGTLSLTCAVSGGSISSSNWWSWVRQPPGRGLEWIGEIYHSGNTNNSPSLKSRVTISADKSKNQFSLKLSSVTAADTAVYFCARIIAVARYFDSWGQGTLVTVSS
# VL: SYVLTQPPSVSVAPGQTARITCGGNNIGIKSVHWYQQKPGQAPVLVVYDDSDRPPGIPERFSGSNSGNTATLTITRVEAGDEADYYCQVWDSSSDHVVFGGGTKLTVL
# notes: huIgG1 F405L; also called C33F71; C33H55/C33L42
# B2: C33B101 (antibody, V domains shown)
# VH: QLQLQESGPGLVKPSETLSLTCTVSGGSISSSSYYWGWIRQPPGKGLDWIGSINYSGSTYYNPSLKSRVTISVDTSKIQFSLKLRSVTAADTAVYYCARLDGYESPFDYWGQGTLVTVSS
# VL: DIQMTQSPSSVSASVGDRVTITCRASQGISSWLAWYQQKPGKAPKLLIYAASSLQSGVPSRFSGSGSGTDFTLTISSLQPEDFATYYCQQANSFPFTFGPGTKVDIK
# notes: huIgG1 F405L; 260 is used; also called C33F106; C33H69/C4LL152
# B3: C33B48 (antibody, IgG1, V domains shown)
# VH: QVQLVQSGSELRKPGASVKVSCKASGYTFTNYAMNWVRQAPGQGLEWMGWINTNTGNPTYAQGFTGRFVFSLDTSVSSAYLQISSLKAEDTAMYYCATDRDRGTDYWGQGTLVTVSS
# VL: QSALTQPASVSGSPGQSITISCTGTSSDVGDYNYVSWYQQHPGKVPKLMIYDVSNRPSGVSNRFSGSMSGNTASLTISGLQAEDEADYYCSSYSSSSALEVFGGGTKLTVL
# notes: huIgG1 F405L; also called C33F53; C33H80/C33L73
# B4: C33B46 (antibody, IgG1, V domains shown)
# VH: B3 VH with R12K, T30S, N31T, S78T, M93V, T98R
# VL: B3 VL with Y32D, V45A, M68K, A82S, S97T, A98T
# notes: huIgG1 F405L; also called C33F51; C33H108/C33L74
# B5: C33B122 (antibody, IgG1, V domains shown)
# VH: QLQLQESGPGLVKPSETLSLTCTVSGGSIRSSSYYWGWIRQPPGKGPEWIGSIYSSGNTYYNPSLKSRVTISVDTSKNQFSLKLISMTAADTAVFYCARLAATIVVPAARYFDCWGQGTLVTVSS
# VL: SYELTQPPSVSVSPGQTVSISCSGDRLGDKYACWYQQKPGQSPVLVIYQDSKRPSGIPERFSGSNSGNTATLTISGTQAMDEADYYCQAWDSSSYVFGTGTKVTVL
# notes: huIgG1 F405L; also called C33F127; C33H92/C33L30
# B6: C33B61 (antibody, V domains shown)
# VH: QLQLQESGPGLVKPSETLSLTCTVSGGSIRSTNYYWGWIRQPPGKGLEWIGTIYYSGNTYYNPSLKSRVTISVDTSKNQFSLKLSSVTAADTAVYYCARLADVVVVPAARYFDYWGQGILVTVSS
# VL: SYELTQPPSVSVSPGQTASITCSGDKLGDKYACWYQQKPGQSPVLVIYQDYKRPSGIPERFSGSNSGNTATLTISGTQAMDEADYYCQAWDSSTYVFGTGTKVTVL
# notes: huIgG1 F405L; also called C33F66; C33H48/C33L58
# B7: C33B123 (antibody, IgG1, V domains shown)
# VH: B6 VH with R30S, T32R, N33S, Y34H, K45V, T52S, S56T, N58S, V103I, I119T
# VL: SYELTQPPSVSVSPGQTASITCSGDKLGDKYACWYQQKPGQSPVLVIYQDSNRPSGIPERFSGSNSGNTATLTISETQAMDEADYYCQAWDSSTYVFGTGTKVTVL
# notes: huIgG1 F405L; also called C33F128; C33H91/C33L44
# B8: C33B62 (antibody, IgG1, V domains shown)
# VH: B6 VH with T32S, N33G, Y34F, G44R, Y96F, Y114N, I119T
# VL: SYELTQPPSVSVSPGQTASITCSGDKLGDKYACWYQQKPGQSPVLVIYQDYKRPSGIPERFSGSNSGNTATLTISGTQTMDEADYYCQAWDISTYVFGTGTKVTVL
# notes: huIgG1 F405L; also called C33F67; C33H49/C33L59
# Biological target: T1, Cyno CD33 full length, expressed on HEK293F cells (cynomolgus monkey)
# T1 construct: HEK293F cells transduced with lentivirus containing full length cyno CD33 (Genbank XP_005590138.1); also called cyCD33
# Assay: flow cytometry, HEK293F cells expressing cyno CD33
# Method: (§1) OMNIRat antibodies identified via immunization, v-region cloned and subsequently expressed and purified were characterized further for binding to CD33 expressing cells and binding to recombinant antigens. The purified antibodies were assessed for binding to stably transfected HEK293F cells expressing human CD33 or cyno CD33 (generation described above) along with the parental HEK293F as negative control. Cells were harvested from tissue culture flasks using non-enzymatic dissociation buffer (Thermo Scientific). The flasks were rinsed twice with PBS and dissociation buffer was added to the flask, and the flask was incubated for 10 minutes at 37° C. until the cells became non-adherent. The cells were centrifuged at 300 g for 5 minutes and resuspended at 1.0×10⁶ cells/ml in staining buffer (Becton Dickinson; Franklin Lakes, NJ). 50,000 cells/well of each cell type was plated in 50 μl of staining buffer in round bottom plates (Becton Dickinson). […] 100 μl staining buffer was added to all wells of each plate, the plates were spun at 300 g for 5 min, the buffer was removed, 200 μl staining buffer was added to all wells of each plate, the plates were spun at 300 g for 5 min, and the buffer was removed. 50 μl of 2 μg/ml of Goat-anti-human Fc AF647 secondary antibody (Jackson Immunoresearch; West Grove, PA) was added to all wells of the plates, and the plates were incubated for 30 min at 4° C. 100 μl staining buffer was added to all wells of the plates, the plates were spun at 300 g for 5 min, and the buffer was removed. 200 μl running buffer (running buffer is Staining buffer, 1 mM EDTA, 0.1% Pluronic Acid) was added to all wells of the plates, the plates were spun at 300 g for 5 min, and the buffer was removed. 30 μl running buffer containing Sytox Green live/dead dye (ThermoFisher) was added to all wells with cells and the plates were read on an iQue IntelliCyt flow cytometer. Cells were gated on forward vs. side scatter to eliminate debris, then on singlets and then on live cells which excluded the Sytox stain. Antibody binding was assessed by the mean fluorescence intensity in the AF647 channel.
MFI at 0 nM mAb (background),MFI at 0.6 nM mAb,MFI at 6 nM mAb,MFI at 60 nM mAb,Binder
78 MFI,42200 MFI,49100 MFI,48900 MFI,B1
79.7 MFI,18000 MFI,46100 MFI,48000 MFI,B2
94 MFI,43400 MFI,47300 MFI,56500 MFI,B3
92 MFI,49700 MFI,49800 MFI,49800 MFI,B4
82.5 MFI,5840 MFI,13900 MFI,19700 MFI,B5
107 MFI,1600 MFI,8210 MFI,13600 MFI,B6
61.1 MFI,3230 MFI,10400 MFI,10700 MFI,B7
934 MFI,1920 MFI,5620 MFI,12700 MFI,B8

# Biological target: T2, Human CD33 full length, expressed on HEK293F cells (human, UniProt P20138 18-364)
# T2 construct: HEK293F cells transduced with lentivirus containing full length human CD33; also called huCD33
# T2 sequence (P20138 18-364 limits assumed): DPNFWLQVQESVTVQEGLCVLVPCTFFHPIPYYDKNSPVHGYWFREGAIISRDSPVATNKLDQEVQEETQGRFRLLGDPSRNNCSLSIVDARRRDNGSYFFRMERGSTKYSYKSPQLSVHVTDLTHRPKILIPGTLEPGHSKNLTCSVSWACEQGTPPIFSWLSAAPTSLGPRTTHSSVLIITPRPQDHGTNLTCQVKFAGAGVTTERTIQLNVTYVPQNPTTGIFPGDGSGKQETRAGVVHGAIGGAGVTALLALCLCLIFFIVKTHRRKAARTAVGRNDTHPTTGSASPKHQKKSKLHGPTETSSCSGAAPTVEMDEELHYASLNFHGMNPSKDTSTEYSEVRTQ
# Assay: flow cytometry, HEK293F cells expressing human CD33
# Method: as §1
MFI at 0 nM mAb (background),MFI at 0.6 nM mAb,MFI at 6 nM mAb,MFI at 60 nM mAb,Binder
130 MFI,56600 MFI,313000 MFI,445000 MFI,B1
70.1 MFI,35500 MFI,205000 MFI,269000 MFI,B2
91.1 MFI,391000 MFI,429000 MFI,401000 MFI,B3
135 MFI,418000 MFI,448000 MFI,510000 MFI,B4
65 MFI,14300 MFI,84300 MFI,259000 MFI,B5
79.8 MFI,5310 MFI,38700 MFI,199000 MFI,B6
71 MFI,8860 MFI,88200 MFI,224000 MFI,B7
75 MFI,6090 MFI,37400 MFI,158000 MFI,B8

# Biological target: Human CD33 ECD-HSA (human)
# Sequence (chain, as listed by the source): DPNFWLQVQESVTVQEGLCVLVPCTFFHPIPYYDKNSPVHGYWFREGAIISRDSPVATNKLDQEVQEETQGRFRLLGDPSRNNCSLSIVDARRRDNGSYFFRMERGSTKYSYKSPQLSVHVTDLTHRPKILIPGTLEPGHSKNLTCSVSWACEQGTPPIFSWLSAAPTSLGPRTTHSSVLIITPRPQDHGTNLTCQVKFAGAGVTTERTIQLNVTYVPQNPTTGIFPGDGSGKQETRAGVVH
# Assay: SPRi off-rate screen (IBIS MX96), mAb captured by anti-human Fc; column head prints KD
# Method: (§2) To begin assessing the biophysical binding properties of the purified mAbs an off-rate screen was performed. 76 OMNIRat anti-CD33 mAbs were tested for binding to recombinant human CD33 ECD-HSA (C33W2) and cyno CD33 ECD-HSA (C33W1) proteins (Janssen production) and the off-rate was measured by IBIS MX96 SPRi array platform (Carterra; Newton, PA). […] The sensor chip was transferred to the Continuous Flow Microspotter (CFM) unit to capture each anti-CD33 mAb at 10 μg/ml for 10 minutes. Binding was measured on IBIS SPRi by single cycle kinetics without regeneration. […] The raw binding data (.trix file format) were referenced and aligned using SprintX software (Wasatch, Ver 1.9.3.2), then exported (.ibmx file format) to Scrubber software (Ver. 2.0) for 1:1 binding kinetic analyses (Wasatch, version 2.0.0.33) to extract the koff results.
row,koff,Binder
1,0.000859 s⁻¹,B1
2,0.000398 s⁻¹,B2
3,5.47e-05 s⁻¹,B3
4,0.000467 s⁻¹,B4
5,0.00874 s⁻¹,B5
6,0.00671 s⁻¹,B6
7,0.0103 s⁻¹,B7
8,0.01 s⁻¹,B8

# Biological target: T3, Cyno CD33 ECD-HSA (cynomolgus monkey)
# T3 construct: Cyno CD33 extracellular domain fused to monomeric human serum albumin and a six-histidine tag; also called C33W1
# Assay: SPRi off-rate screen (IBIS MX96), mAb captured by anti-human Fc; column head prints Cyno CD33 binding KD
# Method: as §2
row,koff,Binder
1,9.33e-05 s⁻¹,B1
2,0.000106 s⁻¹,B2
3,0.00012 s⁻¹,B3
4,0.000148 s⁻¹,B4
5,0.00145 s⁻¹,B5
6,0.00183 s⁻¹,B6
7,0.00274 s⁻¹,B7
8,0.00132 s⁻¹,B8

# Biological target: Human CD33 ECD-HSA (human)
# Assay: ProteOn SPR, mAb captured by anti-human Fc, 1:1 Langmuir fit
# Method: (§3) The panel of mAbs was then further characterized for full affinity analysis as well as epitope binning. The binding of anti-CD33 mAbs to recombinant human CD33 ECD-HSA (C33W2) and cyno CD33 ECD-HSA (C33W1) was measured by ProteOn SPR (Bio-Rad). […] Different mAbs were captured on the anti-human Fc IgG surface at 0.25 or 0.5 μg/ml (160-300 RU) in vertical ligand orientation, with the 6th ligand channel as no ligand surface control. Human and cyno CD33-HSA proteins at 0.3 μM concentration in 3-fold dilution series of 5 concentrations flew in as analyte to bind to captured mAbs in the horizontal orientation. A buffer sample was also injected in the 6th channel to monitor the dissociation of captured mAb and baseline stability. […] The raw biding data were processed by double referencing after subtracting the response data from: 1) the inter-spot to correct for the non-specific interactions between the Ag and the empty chip surface; 2) the buffer channel to correct for baseline drifting due to the dissociation of captured mAb surface over time. The processed data at all antigen concentrations for each mAb were globally fit to a 1:1 simple Langmuir binding model to extract estimates of the kinetic (kₒₙ, koff) and affinity (Kd) constants.
Kd,koff,kon,Binder
52.9 nM,0.00203 s⁻¹,38500 M⁻¹ s⁻¹,B1
6.64 nM,0.00108 s⁻¹,162000 M⁻¹ s⁻¹,B2
0.0112 nM,1.82e-05 s⁻¹,1.62e+06 M⁻¹ s⁻¹,B3
1.38 nM,0.00199 s⁻¹,1.45e+06 M⁻¹ s⁻¹,B4
9.53 nM,0.00712 s⁻¹,747000 M⁻¹ s⁻¹,B5
21.4 nM,0.0105 s⁻¹,489000 M⁻¹ s⁻¹,B6
14.8 nM,0.0152 s⁻¹,1.02e+06 M⁻¹ s⁻¹,B7
24.9 nM,0.0126 s⁻¹,507000 M⁻¹ s⁻¹,B8

# Biological target: T3, Cyno CD33 ECD-HSA
# Assay: as above
# Method: as §3
Kd,koff,kon,Binder
0.217 nM,0.000266 s⁻¹,1.22e+06 M⁻¹ s⁻¹,B1
1.2 nM,0.000269 s⁻¹,225000 M⁻¹ s⁻¹,B2
0.0366 nM,0.000158 s⁻¹,4.31e+06 M⁻¹ s⁻¹,B3
0.126 nM,0.000375 s⁻¹,2.97e+06 M⁻¹ s⁻¹,B4
2.21 nM,0.00162 s⁻¹,734000 M⁻¹ s⁻¹,B6
2.69 nM,0.00339 s⁻¹,1.26e+06 M⁻¹ s⁻¹,B7
1.85 nM,0.00149 s⁻¹,805000 M⁻¹ s⁻¹,B8
